According to EP2338512A1 (MedImmune, LLC, dated 2011):

How the values were obtained:
[1] = molecular target: T1, RSV F glycoprotein (NUF4) (respiratory syncytial virus (strain not …)); test: BIAcore, monoclonal antibody vs NUF4 (1:1)
[2] = molecular target: T1, RSV F glycoprotein (NUF4); test: BIAcore, monoclonal antibody vs NUF4 (2:1)
Bac-F = test: BIAcore, monoclonal antibody vs Bac-F (1:1)
[3] = molecular target: T1, RSV F glycoprotein (NUF4); test: ITC, NUF4 titrated into antibody

B1: A4B4 (monoclonal antibody) (antibody, V domains shown)
VH: QVTLRESGPALVKPTQTLTLTCTFSGFSLSTAGMSVGWIRQPPGKALEWLADIWWDDKKHYNPSLKDRLTISKDTSKNQVVLKVTNMDPADTATYYCARDMIFNFYFDVWGQGTTVTVSS
VL: DIQMTQSPSTLSASVGDRVTITCSASSRVGYMHWYQQKPGKAPKLLIYDTFFLDSGVPSRFSGSGSGTEFTLTISSLQPDDFATYYCFQGSGYPFTFGGGTKLEIK
Q: Which “number in parentheses after KD (ratio to SYNAGIS, which has 1)” value (“number … (ratio to SYNAGIS, which has 1)” for short) [1] does the source give for B1 here?
A: 15 fold

Q: And the “number … (ratio to SYNAGIS, which has 1)” value [2]?
A: 156 fold

Q: What about the “number … (ratio to SYNAGIS, which has 1)” value (Bac-F) of the same binder?
A: 195 fold

Q: What about the ΔHb [3] of the same binder?
A: 22.2 kcal/mol
